# According to article PMC7083832, “Structural analysis of TIFA: Insight into TIFA-dependent signal transduction in innate immunity” (Scientific Reports, 2020):
# Positions count from the first letter of the chain named. Numbers in names are those of the source. Where “and” joins values, the source holds several entries; their conditions need not be identical. Equal values may be shown once.
# B1: mouse TRAF6-C containing a part of coiled-coil domain (amino acid residues from 326 to 516) (domain or fragment, UniProt P70196 326-516, looked up)
# chain: AKMETQSMYVGELKRTIRTLEDKVAEMEAQQCNGIYIWKIGNFGMHLKSQEEERPVVIHSPGFYTGRPGYKLCMRLHLQLPTAQRCANYISLFVHTMQGEYDSHLPWPFQGTIRLTILDQSEALIRQNHEEVMDAKPELLAFQRPTIPRNPKGFGYVTFMHLEALRQGTFIKDDTLLVRCEVSTRFDMGGL
# notes: TRAF6, mouse, residues 326-516: part of the coiled-coil domain and the C-terminal TRAF (TRAF-C) domain; also called TRAF-C domain of TRAF6; not shown: His tag, C-terminal, kept
# B2: full-length mouse TIFA (TRAF-interacting protein with a forkhead-associated (FHA) domain) (natural protein, UniProt Q793I8 1-184, looked up)
# chain: MSTFEDADTEETVTCLQMTIYHPGQQSGIFKSIRFCSKEKFPSIEVVKFGRNSNMCQYTFQDKQVSRIQFVLQPFKQFNSSVLSFEIKNMSKKTSLMVDNQELGYLNKMDLPYKCMLRFGEYQFLLQKEDGESVESFETQFIMSSRPLLQENNWPTQNPIPEDGMYSSYFTHRSSPSEMDENEL
# notes: TIFA, mouse, full length, 184 amino acids, GenBank BAB86903.1; A SeMet form (E. coli B834(DE3)) was used only for phasing; also called wildtype TIFA; native TIFA; not shown: His tag, C-terminal, kept
# B3: mouse TIFA E39R/E138R mutant (natural protein, UniProt Q793I8 1-184, looked up)
# chain: B2 chain with E39R, E138R
# notes: TIFA, mouse, full length, 184 amino acids, GenBank BAB86903.1, with E39R and E138R; source: E. coli BL21(DE3), pET-30b(+), purified by nearly the same procedure as for native TIFA
# B4: mouse TIFA T9E/C36S mutant (natural protein, UniProt Q793I8 1-184, looked up)
# chain: B2 chain with T9E, C36S
# notes: TIFA, mouse, full length, 184 amino acids, GenBank BAB86903.1, with T9E (phosphomimetic) and C36S; source: E. coli BL21(DE3), pET-30b(+), purified by nearly the same procedure as for native TIFA
# B5: mouse TIFA E39R/E45R/E138R mutant (natural protein, UniProt Q793I8 1-184, looked up)
# chain: B2 chain with E39R, E45R, E138R
# notes: TIFA, mouse, full length, 184 amino acids, GenBank BAB86903.1, with E39R, E45R and E138R; source: E. coli BL21(DE3), pET-30b(+), purified by nearly the same procedure as for native TIFA
# B6: mouse TIFA T9D/C36S mutant (natural protein, UniProt Q793I8 1-184, looked up)
# chain: B2 chain with T9D, C36S
# notes: TIFA, mouse, full length, 184 amino acids, GenBank BAB86903.1, with T9D (phosphomimetic) and C36S; Dimers assemble into a hexamer in the crystal; source: E. coli BL21(DE3), pET-30b(+), purified by nearly the same procedure as for native TIFA
# Assays:
# [1] = target: the molecule itself; test: SEC; each protein alone; Superdex 200; 20 mM Tris pH 8.0, 500 mM NaCl, 2 mM EDTA, 1 mM β-mercaptoethanol
# [2] = target: B1; test: SEC; TIFAs and TRAF6-C mixed at a molar ratio of 1:1 (monomer:monomer); Superdex 200; 20 mM Tris pH 8.0, 500 mM NaCl, 2 mM EDTA, 1 mM β-mercaptoethanol; details: both partners purified
# [3] = target: the molecule itself; test: crystal structure; hanging-drop vapour diffusion, reservoir 0.1 M MES pH 6.4, 5% (v/v) MPD (native TIFA; T9E/C36S under a similar condition); data at 100 K
# [4] = target: the molecule itself; test: crystal structure; reservoir 0.1 M sodium citrate pH 5.3, 40% (v/v) PEG400 (T9D/C36S); data at 100 K
binding result [2],Binder,stoichiometry N [1],stoichiometry N [3],binding result [1],stoichiometry N [4]
–,B1,3,–,–,–
binds,B2,–,2,–,–
binds,B3,–,–,binds,–
binds,B4,–,2,–,–
binds,B5,–,–,binds,–
binds,B6,–,–,–,2 and 6
